The record followed here is US20170121382A1 (NORTHWESTERN UNIVERSITY, published 2017).

In this assay the target is T1, PHEX (phosphate-regulating gene with homology to endopeptidase on the X chromosome), endogenous mouse protein (mouse, UniProt P70669 1-749).
T1 construct: Endogenous PHEX of mouse bone extracts (coIP); The same id stands for the endogenous PHEX of mouse MC3T3-E1 cells and of mice in the functional rows; also called bone metallo-endopeptidase PHEX
T1 sequence (looked up): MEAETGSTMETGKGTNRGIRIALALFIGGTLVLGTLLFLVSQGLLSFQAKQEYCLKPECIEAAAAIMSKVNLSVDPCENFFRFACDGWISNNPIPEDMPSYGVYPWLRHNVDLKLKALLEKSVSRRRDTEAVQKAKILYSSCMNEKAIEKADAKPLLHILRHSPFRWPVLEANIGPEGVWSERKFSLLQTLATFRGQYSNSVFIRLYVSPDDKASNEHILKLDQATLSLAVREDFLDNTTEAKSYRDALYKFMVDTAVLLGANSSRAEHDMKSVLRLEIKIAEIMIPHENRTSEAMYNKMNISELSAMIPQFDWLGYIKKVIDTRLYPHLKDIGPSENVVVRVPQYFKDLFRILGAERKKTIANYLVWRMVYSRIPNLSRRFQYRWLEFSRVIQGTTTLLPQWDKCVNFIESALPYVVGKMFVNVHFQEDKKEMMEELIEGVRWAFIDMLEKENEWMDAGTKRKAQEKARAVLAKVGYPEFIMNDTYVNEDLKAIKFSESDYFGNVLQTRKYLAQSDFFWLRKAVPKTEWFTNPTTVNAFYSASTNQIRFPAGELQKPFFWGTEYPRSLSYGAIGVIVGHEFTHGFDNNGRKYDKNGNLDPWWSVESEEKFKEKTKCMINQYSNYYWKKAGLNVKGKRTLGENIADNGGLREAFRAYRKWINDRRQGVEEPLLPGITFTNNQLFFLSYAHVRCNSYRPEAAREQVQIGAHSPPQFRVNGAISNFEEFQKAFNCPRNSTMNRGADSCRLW
Nature of the assay: coIP, anti-PHEX antibody-coated beads, mouse bone extracts, Western blot for DMP1. On the procedure:
FIGS. 4A-C. (FIG. 4A) PHEX binds to full length DMP1 and cDMP1. Bone protein extracts from WT and DMP1ko/cDMP1Tg were incubated with anti-PHEX antibody-coated beads. […] Negative control ((−) CTR) was obtained from uncoated beads to evaluate non-specific binding. […] The constant of dissociation (KD) between PHEX and the entire DMP1 protein reflecting binding affinity is as strong as the KD obtained previously between rPHEX and the small 19 amino acid MEPE-ASARM peptide. Data are normalized by non-specific binding at baseline and expressed as relative units (RU) of response difference. (FIG. 4C) Dose-dependent binding of rPHEX to rDMP1, represented by quantitation of the SPR sensorgram, confirms binding specificity.
Both PHEX and DMP1 are expressed by osteocytes. The ASARM sequence binds to PHEX. Co-immunoprecipitation (coIP) of PHEX and DMP1 were performed in endogenous bone protein extracts to test the presence of binding between PHEX and cDMP1. Magnetic beads were covalently coated with a PHEX antibody (Ab) and incubated with protein extracts isolated from WT or DMP1ko/cDMP1Tg mice. Detection of DMP1 in the protein pull-downs eluted from the beads was performed by Western Blot analysis using an Ab targeting the C-terminus region (FIG. 4A). […] In the DMP1ko/cDMP1Tg extracts in which full-length DMP1 is not expressed, only cDMP1 fragments were detected. […]

B1: full-length DMP1 (dentin matrix protein 1), endogenous mouse protein, ~100 kDa (other, UniProt O55188 17-503, looked up)
chain: LPVARYHNTESESSEERTGDLAGSPPPPTNSESSEESQASPEGQANSDHTDSSESGEELGYDRGQYRPAGGLSKSTGTGADKEDDEDDSGDDTFGDEDNDLGPEEGQWGGPSKLDSDEDSTDTTQSSEDSTSQENSAQDTPSDSKDHDSEDEADSRPEAGDSTQDSESEEQRVGGGSEGESSHGDGSEFDDEGMQSDDPESTRSDRGHARMSSAGIRSEESKGDHEPTSTQDSDDSQSVEFSSRKSFRRSHVSEEDYRGELTDSNSRETQSDSTEDTASKEESRSESQEDTAESQSQEDSPEGQDPSSESSEEAGEPSQESSSESQEGVTSESRGDNPDNTSQAGDQEDSESSEEDSLNTFSSSESQSTEEQADSESNESLSLSEESQESAQDGDSSSQEGLQSQSASTESRSQESQSEQDSRSEEDSDSQDSSRSKEESNSTGSASSSEEDIRPKNMEADSRKLIVDAYHNKPIGDQDDNDCQDGY
Regarding B1, the binding result is listed as “binds”.
